US20130071374

Test system: (His)6PemI

PemK(His)6 was tested, and the “cleavage of mazG mRNA (native PAGE of digestion products)” value was “the addition of PemI inhibited the cleavage of mazG mRNA in a dose-dependent manner”.
